From US20220380444A1 (UNIVERSITY COLLEGE CARDIFF CONSULTANTS, published 2022) come the findings set out here.

Test [1] deals with T1, human complement protein C7 (human, UniProt P10643 23-843).
T1 construct: Purified in house, or present in human serum in the western blots; also called human C7; Hu C7
Briefly: sandwich ELISA, 2H2 coated as capture, human C7 titrated, goat anti-C7 as detection.

Test [2] concerns the target T2, rat C7 protein (rat).
T2 chain: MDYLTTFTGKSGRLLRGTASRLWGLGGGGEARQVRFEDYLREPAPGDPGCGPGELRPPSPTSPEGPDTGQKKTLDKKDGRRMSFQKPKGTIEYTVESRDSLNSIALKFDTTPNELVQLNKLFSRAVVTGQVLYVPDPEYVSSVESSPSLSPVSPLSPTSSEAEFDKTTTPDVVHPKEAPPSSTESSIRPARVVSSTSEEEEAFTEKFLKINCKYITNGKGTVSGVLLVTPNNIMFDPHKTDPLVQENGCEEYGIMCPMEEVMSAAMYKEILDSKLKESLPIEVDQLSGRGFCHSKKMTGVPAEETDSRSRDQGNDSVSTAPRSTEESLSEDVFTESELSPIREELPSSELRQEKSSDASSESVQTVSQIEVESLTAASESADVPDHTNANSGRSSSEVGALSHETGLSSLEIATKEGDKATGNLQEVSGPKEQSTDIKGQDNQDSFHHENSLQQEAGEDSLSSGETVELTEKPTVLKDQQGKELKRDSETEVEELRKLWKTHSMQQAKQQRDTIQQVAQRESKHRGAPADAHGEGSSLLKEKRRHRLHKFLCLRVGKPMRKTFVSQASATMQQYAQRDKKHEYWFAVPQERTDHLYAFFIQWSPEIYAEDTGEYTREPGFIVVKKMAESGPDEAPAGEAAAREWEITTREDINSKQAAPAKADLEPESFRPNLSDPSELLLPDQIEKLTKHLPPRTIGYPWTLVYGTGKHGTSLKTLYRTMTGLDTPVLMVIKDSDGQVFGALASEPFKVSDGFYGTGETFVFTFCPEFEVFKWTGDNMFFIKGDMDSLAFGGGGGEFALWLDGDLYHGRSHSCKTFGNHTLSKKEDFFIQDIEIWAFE
The experiment in a line: direct ELISA, rat C7 on the well, antibody titrated.

For test [3], the target named is T1, human complement protein C7. The experiment in a line: cell-based or functional assay.
The next test has as its target mouse C7 protein (mouse, UniProt D3YXF5 23-845). The experiment in a line: cell-based or functional assay.
The target of test [4] is T2, rat C7 protein. Briefly: cell-based or functional assay.
In test [5] the target is T1, human complement protein C7. The experiment in a line: sandwich ELISA, 2H2 coated as capture, human C7 titrated, polyclonal anti-C7 as detection.
For test [6] the target is unchanged. The experiment in a line: SPR (Biacore); antibody captured on mouse IgG capture kit (CM5 chip), C7 flowed over. On the procedure: (§1) Dissociation was then measured for a further 600 seconds. The surface was regenerated between each cycle.
Test [7] concerns the target T2, rat C7 protein. Described as above. On the procedure:
as §1

Test [8] addresses T1, human complement protein C7. Briefly: direct ELISA, C7 immobilised on the well, antibody titrated. On the procedure:
Wells were blocked with bovine serum albumin (BSA), washed, then incubated (1 hour at 37° C.) with test samples containing mAb (supernatants from hybridoma clones for example). Wells were washed then incubated as above with peroxidase-labelled anti-mouse immunoglobulin (Jackson Labs). Wells were washed and signals were developed with OPD (o-phenylenediamine dihydrochloride; Sigma). Colour development was stopped by adding 10% H₂SO₄ to all wells, usually within 5 minutes. The absorbance of each well was measured at 492 nm.

T1 sequence (P10643 other isoform, or with tags, fused parts or gaps limits assumed): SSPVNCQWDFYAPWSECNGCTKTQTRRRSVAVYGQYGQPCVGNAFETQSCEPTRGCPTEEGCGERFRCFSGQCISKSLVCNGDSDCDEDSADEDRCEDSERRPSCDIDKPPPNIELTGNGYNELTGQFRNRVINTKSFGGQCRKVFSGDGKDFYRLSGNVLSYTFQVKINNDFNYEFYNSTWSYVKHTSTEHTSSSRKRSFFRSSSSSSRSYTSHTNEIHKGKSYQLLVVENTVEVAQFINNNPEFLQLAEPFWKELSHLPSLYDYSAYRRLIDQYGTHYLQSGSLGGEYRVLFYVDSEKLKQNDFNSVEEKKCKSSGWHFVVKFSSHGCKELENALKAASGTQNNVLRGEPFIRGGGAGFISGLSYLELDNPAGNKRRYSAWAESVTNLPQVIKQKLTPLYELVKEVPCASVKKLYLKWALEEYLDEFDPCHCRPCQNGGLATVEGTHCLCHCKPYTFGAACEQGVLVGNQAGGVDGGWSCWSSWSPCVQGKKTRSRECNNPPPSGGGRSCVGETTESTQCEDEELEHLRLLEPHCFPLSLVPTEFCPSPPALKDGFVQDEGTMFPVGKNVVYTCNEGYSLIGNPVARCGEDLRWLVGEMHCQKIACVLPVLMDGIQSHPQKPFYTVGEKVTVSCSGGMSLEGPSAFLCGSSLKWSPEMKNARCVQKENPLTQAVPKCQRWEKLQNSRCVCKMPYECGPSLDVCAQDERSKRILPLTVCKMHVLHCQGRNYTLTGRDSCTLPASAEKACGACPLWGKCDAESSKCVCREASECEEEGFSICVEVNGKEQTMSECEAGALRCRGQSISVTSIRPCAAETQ
Chain of mouse C7 protein (D3YXF5 23-845 limits assumed): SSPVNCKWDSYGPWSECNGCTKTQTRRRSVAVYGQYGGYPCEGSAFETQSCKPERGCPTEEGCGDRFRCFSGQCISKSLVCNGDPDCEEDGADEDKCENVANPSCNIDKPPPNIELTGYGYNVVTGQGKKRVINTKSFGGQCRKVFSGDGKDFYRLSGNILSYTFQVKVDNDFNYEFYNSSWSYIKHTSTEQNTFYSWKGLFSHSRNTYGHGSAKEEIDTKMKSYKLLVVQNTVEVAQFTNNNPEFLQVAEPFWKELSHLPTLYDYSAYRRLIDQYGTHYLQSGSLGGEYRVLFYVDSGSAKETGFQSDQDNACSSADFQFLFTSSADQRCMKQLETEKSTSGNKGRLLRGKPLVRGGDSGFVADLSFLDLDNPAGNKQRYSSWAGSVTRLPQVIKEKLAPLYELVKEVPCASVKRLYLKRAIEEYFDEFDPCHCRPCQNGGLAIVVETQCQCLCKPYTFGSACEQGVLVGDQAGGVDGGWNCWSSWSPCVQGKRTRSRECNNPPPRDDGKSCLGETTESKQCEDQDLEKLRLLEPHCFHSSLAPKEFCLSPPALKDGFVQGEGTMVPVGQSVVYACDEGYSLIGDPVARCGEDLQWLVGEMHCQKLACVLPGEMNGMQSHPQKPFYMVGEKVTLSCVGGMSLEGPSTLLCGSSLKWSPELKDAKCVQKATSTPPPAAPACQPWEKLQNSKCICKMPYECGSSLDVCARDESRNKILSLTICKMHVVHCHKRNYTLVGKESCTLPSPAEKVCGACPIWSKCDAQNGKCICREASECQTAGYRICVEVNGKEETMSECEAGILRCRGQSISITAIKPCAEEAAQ

B1: monoclonal anti-C7 antibody 2H2 (antibody, IgG2b, V domains shown)
VH: QVQLQQPGAELMKPGASVKLSCKASGYIFTSYWMHWVKQRPGRGLEWIGRIDPNSGGTNYNEKFKSKATLTVDKPSSTVYMKISSLTSEDSAVYYCAREHDYDYAMDYWGQGTSVTVSS
VL: DIVMTQAAPSVPVTPGESVSISCRSSKSLLHSNGNTYLYWFLQRPGQSPQLLIYRMSNLASGVPDRFSGSGSGTAFTLRISRVEAEDVGVYYCMQHLEYPFTFGSGTKLEIK
notes: Biotinylated in the pull-down assays; also called mAb 2H2; clone 2H2
Regarding B1, the “EC50 (read off the curve)” value in test [1] is roughly 0.6 µg/mL; with rat C7 protein [2], roughly 3 µg/mL; in [5], roughly 0.6 µg/mL. In addition, the “50% Inhibitory Dose, classical pathway haemolysis assay” value (shortened to “50% Inhibitory Dose”) in test [3] turned out to be 9980 ng/mL; in the test with mouse C7 protein, 3720 ng/mL; in the test with rat C7 protein [4], 33.9 ng/mL. In addition, the “Haemolytic Units (HU), classical pathway haemolysis assay” value (shortened to “Haemolytic Units (HU)”) in [3] was 1 HU; in the test with mouse C7 protein it was 2.7 HU; in the test with rat C7 protein [4], 265 HU.

B2: monoclonal anti-C7 antibody 73D1 (antibody, IgG2a, V domains shown)
VH: EVQLQQSGPELVKPGASVKMSCKASGYTFTDYNMHWVKQSHGKSLEWIGYINPNNGGPSYNQNFKGKATLTVNKSSSTAYMELRSLTSEDSAVYYCACGNYPDYWGQGTTLTVSS
VL: DIQMTQSPASLSASVGETVTITCRASGNIHNYLAWYQQKQGKSPQLLVYNAKTLADGVPSRFSGSGSGTQYSLKINSLQPEDFGSYYCQHFWSTPLTFGAGTKLELK
notes: also called mAb 73D1; antibody from hybridoma ECACC 19080601
In test [6], B2 yielded a Kd of 55.5 nM, a koff of 0.0015 s⁻¹ and a kon of 26300 M⁻¹ s⁻¹. In addition, in the test with rat C7 protein [7], the Kd was determined as 81.7 nM, the koff was determined as 0.00057 s⁻¹ and the kon was found to be 6980 M⁻¹ s⁻¹. In addition, in [3], the “50% Inhibitory Dose” value came out at 582 ng/mL and the “Haemolytic Units (HU)” value worked out at 17.2 HU. For the same molecule, in the test with mouse C7 protein, the “50% Inhibitory Dose” value came out at 720 ng/mL and the “Haemolytic Units (HU)” value came to 13.9 HU. Moreover, in the test with rat C7 protein [4], the “50% Inhibitory Dose” value worked out at 506 ng/mL and the “Haemolytic Units (HU)” value stood at 19.8 HU.

B3: monoclonal anti-C7 antibody 17E7 (antibody, IgG2a, V domains shown)
VH: EVQLQQSGTVLARPGASVKMSCKTSGYSFTTYWMHWVKQRPGQGLEWIGAIYPGNSDTYYSQKFKDKAKLTAVTSASTAYMELSSLTNEDSAVYYCTRSGGYDVGGLDYWGQGTTLTVSS
VL: DIVMTQSPATLSVTPGDGVSLSCRASQSISDYLHWYQQKSHESPRLLIKFASQSISGIPSRFSGSGSGSDFTLSINSVEPEDVGMYYCQNGHSFPFTFGSGTKLELK
notes: also called mAb 17E7; antibody from hybridoma ECACC 19041601
On to B3, for which the “EC50 (read off the curve)” value in [8] was roughly 0.01 µg/mL. In test [6], this molecule registered a Kd of 1.02 nM, a koff of 6.94e-05 s⁻¹ and a kon of 68300 M⁻¹ s⁻¹. Further, in [3], the “50% Inhibitory Dose” value was determined as 182 ng/mL and the “Haemolytic Units (HU)” value amounted to 55.1 HU.
